According to patent publication US20030211470A1:

Columns and labels:
[1] = biological target: HIV-1IIIB gp120/gp41 stably expressed on CHO cells (HIV-1 IIIB); assay: cell-based or functional assay
[2] = biological target: recombinant gp120 from the laboratory-adapted strain HIV-1LAI (HIV-1 LAI) (UniProt P03377); assay: modified ELISA; gp120 captured on plate, CD4-IgG2 titrated, 1 h at 37 C, 50% of maximal binding
[3] = biological target: recombinant gp120 from the primary isolate HIV-1JR-FL (HIV-1 JR-FL) (UniProt P20871); assay: as above

Row | Substance | IC50 (nM), syncytium inhibition [1] [nM] | IC50 (µg/ml), syncytium inhibition [1] [µg/mL] | EC50 [2] [nM] | EC50 [3] [nM] | Relative Potency (mass), relative to sCD4 [1] [fold] | Relative Potency (molarity), relative to sCD4 [1] [fold]
1 | CD4-gamma2 chimeric heavy chain homodimer (Fc fusion) | 40 | 4.03 | – | – | – | –
2 | CD4-IgG2 chimeric heterotetramer (Fc fusion) | 9 | 1.81 | 1.25 | 0.64 | 5.1 | 22.2
